{"source": "patent US6602687B1", "about": "“DNA encoding human ciliary neurotrophic factor and method for producing the protein encoded thereby” (Regeneron Pharmaceuticals, Inc., priority 1989, dated 2003)", "key": {"[1]": {"test_system": "chick embryonic spinal motorneurons", "experiment": "Survival of chick embryonic spinal motorneurons in culture", "assay_type": "cell-based", "experimental": "Motorneuron columns were dissected under a stereomicroscope from the lumbar part of the spinal cord of chick embryos on the 6th day of embryonic development and stored in cold calcium and magnesium-free Hanks balanced salt solution supplemented with glucose (4 g/l) (HBSS). The tissues were washed with HBSS and treated with 0.03% trypsin in HBSS at 37° C. for 20 min with gentle shaking, rinsed with cold HBSS and triturated mildly in 3 steps of 8-passage agitation in 1 ml of cold 0.1% soybean trypsin inhibitor (Sigma) in HBSS through a fire-polished siliconized Pasteur pipette. Each supernatant cell suspension was filtered through 50 μm-Nylon mesh, pooled and layered onto 4 ml of cold 6.8% metrizamide (Fluka) in HBSS-25 mM HEPES (pH7.4) in a 12 ml-siliconized conical glass tube. The tube was centrifuged at 400 g for 15 min at 4° C. and the intermediate layer (0.5 ml) was collected into another siliconized tube containing 6.5 ml of cold culture medium (a mixture of glucose (4 g/l)-supplemented Leibovitz's L-15 medium (Gibco), 0.15 M sodium bicarbonate, heat-inactivated and filtered horse serum and penicillin G (10^5 units/ml) at the ratio of 75:15:10:0.1, freshly prepared and buffered with 5% CO2.) After centrifugation at 100×g for 7 min at 4° C., the supernatant was removed and the cells were gently resuspended in culture medium and plated in Greiner 4-well culture dishes (well diameter, 10 mm; C. A. Greiner und Sohne GmbH, Nurtingen, West Germany) at 1000-2000 cells/well. The dishes had been precoated with poly-DL-ornithine (Sigma, 0.5 mg in 0.15 M sodium borate buffer (pH 8.3) overnight at 4° C., rinsed twice with phosphate-buffered saline (PBS) and subsequently coated with laminin (Gibco; 10 μg/ml in the serum-depleted culture medium) and placed in a 5% CO2-incubator until cell plating (5-6 hrs). Cells were incubated at 37° C. in a humidified 5% CO2- and 95% air-incubator. Samples were added one hr after plating and the culture medium changed after 24 hrs and 72 hrs. The initial cell numbers were counted 3 hrs after plating.\nIn some experiments motor neurons were retrogradely labeled with a fluorescent dye in vivo before cell preparation (U. Dohrman et al., 1986, Dev. Biol. 118:209-221) to identify the motor neuron cell population. A small hole was made in the shell of eggs which had been incubated for 5 days. Small pieces of rhodamine isothiocyanate crystals (Sigma) were inserted at two or three places into each hind limb thigh and the egg hole was sealed with a cellophane tape. The eggs were incubated for another 24 hrs. Some of the operated embryos were then processed for frozen sections after formaldehyde fixation. […] The other embryos were used for cell preparation using the method described above (18.1.1). After 5 hrs in culture cells were rinsed with warm HBSS, fixed with 4% formaldehyde in PBS at room temperature for 20 min, rinsed with PBS and then mounted in glycerol-PBS (1:1) with glass coverslips. Of the total cells approximately 83% were labeled and identified as motorneurons (FIG. 42.) Most of these labeled motorneurons were large cells and the rest were intermediate-size cells. No small cells were labeled. On the other hand, in experiments in which cells were not labeled with a fluorescent dye about 70% of the total cells were large phase-bright cells with round cell somas, about 20% were intermediate-size neurons (most of them may be motorneurons) and about 10% were small immature neurons (they have neuron-like processes with growth cones but have phase-dark semi-flat cell somas). Non-neuronal cells were either not present or accounted for less than 2%. Taken together, one may conclude that at least 83% of the cells are motorneurons while the remainder consists of non-labeled motorneurons, a small number of unidentified intermediate-size neurons and about 10% immature small neurons. […]"}, "[2]": {"test_system": "Ventral spinal cord neurons", "experiment": "E14 rat ventral spinal cord neuron cultures in defined medium", "assay_type": "cell-based", "details": "CNTF 2 μl/ml", "description": "Sprague-Dawley rats (HSD) were used for all experiments. Pregnant rats were sacrificed by carbon dioxide asphyxiation, and the embryos were rapidly removed and placed in ice-cold Puck's saline G for further dissection.\nSpinal cords were removed aseptically from rat embryos on the 14th day of gestation. The spinal cord was severed caudal to the bulb, freed of sensory ganglia and meninges. The cord was then subdivided into ventral and mediodorsal segments for separate cultures. The cord tissues were minced into small pieces and mechanically dissociated by trituration through a Pasteur pipet in defined culture medium consisting of 50% basal medium Eagle (BME; Gibco) and 50% Ham's nutrient mixture F12 (Gibco) supplemented with glucose (33 mM), glutamine (2 mM, NaHCO3 (15 mM), HEPES (10 mM), insulin (25 μg/ml), transferrin (100 μg/ml) putrescine (60 μM), progesterone (20 nM), Na selenite (30 nM), penicillin G (0.5 μg/ml), streptomycin (0.5 μg/ml), and bovine serum albumin (2.5 μg/ml). Trituration was repeated twice and the supernatants were pooled and filtered through a nylon (Nitex, Tetko) filter (40 μm). Total cell number yielded was determined by hemocytometer counting in the presence of trypan blue. Dissociated ventral cells were then plated at a density of 0.5 million cells/35 mm dish coated with poly-D-lysine (10 μg/ml). Dissociated mediodorsal cells were plated at a density of 1.5 million/35 mm dish coated with poly-D-lysine (10 μg/ml), poly-L-ornithine (10 μg/ml), or poly-L-ornithine with laminin (5 μg/ml). Treatments to these cultures were added at the time of plating. Cultures were maintained at 37° C. in a 95% air/5% CO2 atmosphere at nearly 100% relative humidity. Culture medium was changed every three to four days."}}, "note": "Read-outs that look alike come from different tables or passages of the source."}
{"molecule": "CNTF: ciliary neurotrophic factor; recombinant rat CNTF in Sections 10, 15, 17, purified rat sciatic nerve CNTF in Section 11; see endpoint conditions (protein, UniProt P20294 1-200, looked up) Ciliary neurotrophic factor: MAFAEQTPLTLHRRDLCSRSIWLARKIRSDLTALMESYVKHQGLNKNINLDSVDGVPVASTDRWSEMTEAERLQENLQAYRTFQGMLTKLLEDQRVHFTPTEGDFHQAIHTLMLQVSAFAYQLEELMVLLEQKIPENEADGMPATVGDGGLFEKKLWGLKVLQELSQWTVRSIHDLRVISSHQMGISALESHYGAKDKQM", "values": [{"measurement": "concentration at which the highest survival effect was obtained", "setting": "[1]; 3 days in culture", "result": 1, "unit": "ng/mL"}, {"measurement": "highest survival effect of the concentration-response curve", "setting": "[1]; 3 days in culture, CNTF = recombinant rat", "result": 64, "unit": "%"}, {"measurement": "Motoneuron survival (%)", "setting": "[1]; after 3 days in culture, mean ± SEM (n = 4), IGF-I 1 μg/ml, Basic FGF 30 ng/ml, CNTF 1.5 ng/ml", "result": "60.7 ± 5.8", "unit": "%"}, {"measurement": "Survival", "setting": "[1]; after 3 days in culture, one concentration per molecule, Table VI, CNTF rat, rec.", "result": "+ + +"}, {"measurement": "EC50", "setting": "[1]; motorneuron survival, 3 days in culture", "result": 0.023, "unit": "ng/mL"}, {"measurement": "EC50 (the concentration required for 50% survival)", "setting": "[1]; recombinant rat CNTF, day 3", "result": "about 20 pg/ml"}, {"measurement": "EC50", "setting": "[1]; recombinant rat CNTF, day 3, read-out: EC50 (the concentration required for 50% survival)", "result": "~1", "unit": "pM"}, {"measurement": "time ventral neurons survive in defined medium", "setting": "[2]", "result": "> 1", "unit": "week"}, {"measurement": "CAT Activity", "setting": "[2]; NGF 50 ng/ml at plating, day 7", "result": "959.5 ± 24.32", "unit": "CPM/dish"}, {"measurement": "Protein", "setting": "[2]; NGF 50 ng/ml at plating, day 7", "result": 45, "unit": "μg/dish"}]}
